Source: patent US20030061635A1, “Pollen-specific novel calmodulin-binding protein, NPG1 (No Pollen Germination1), promoter, coding sequences and methods for using the same” (priority 2001, published 2003)

How the values were obtained:
[1] = test system: CaM isoforms 2, 4, and 6 from Arabidopsis; test: Slot blot: synthetic peptides probed with 35S-labeled AtCaM isoforms; type: binding, Arabidopsis thaliana
Protocol: Soluble and insoluble proteins from the induced and un-induced cultures were separated on 12% SDS-polyacrylamide gels and blotted as described above. To detect the binding of the expressed proteins to ^35S-labeled AtCaM, duplicate blots were blocked for 15 min in TBS (50 mM Tris-HCl, pH 7.5, 150 mM NaCl) containing 5 mM of either CaCl2 or EGTA and 1% nonfat dry milk. The blots were then incubated for 12 h in a mixture of ^35S-labeled AtCaM isoforms at […] in the same buffers as above. The filters were then washed with the corresponding buffer and dried before exposing to X-ray film. Binding to biotinylated CaM was detected by blocking the blots in 3% gelatin in TBS/Ca/Mg or TBS/EGTA/Mg (50 mM Tris-HCl, pH 7.5, 50 mM MgCl2, 150 mM NaCl, and 5 mM of either CaCl2 or EGTA) at 30° C. […] The blots were then incubated in Vectastain ABC.HRP in TBS/Ca/Mg or TBS/EGTA/Mg for 30 min, washed 3 times, 10 min each, with the above buffer and the CaM-binding proteins were detected colorimetrically in a substrate solution (0.8 mg/ml diaminobenzidine, 0.4 mg/ml NiCl2, and 0.009% H2O2 in 100 mM Tris-HCl, pH 7.5). […]
The interaction between synthetic peptides and AtCaM isoforms was analyzed by applying synthetic peptides to a nitrocellulose membrane in a slot blot apparatus, and incubating the membrane individually with ^35S-labeled AtCaM isoforms using the method described above.

35S-labeled AtCaM = test: Blot overlay of bacterially expressed maize NPG1 fusion proteins with 35S-CaM; type: binding, Arabidopsis thaliana; conditions: in the presence of Ca2+
Protocol: The 1.2-kb cDNA insert (named P3) containing the coding region for 242 amino acids in the carboxyl-terminal region was cloned in-frame into a pET28b expression vector. For mapping the CaM-binding domain, several truncated constructs were prepared in a pET vector. The P3 cDNA in pET28 was digested with either NcoI or BamHI to release a 168- or 717-bp fragment corresponding to the 5′ end of the cDNA. The NcoI and BamHI fragments were cloned into pET28b vector digested with the respective enzymes to generate P3/NcoI and P3/BamHI clones. The P3 clones lacking either NcoI or BamHI fragments were religated to generate PΔNcoI and PΔBamHI expression clones. […]
Soluble and insoluble proteins from the induced and un-induced cultures were separated on 12% SDS-polyacrylamide gels and blotted as described above. […] Binding to biotinylated CaM was detected by blocking the blots in 3% gelatin in TBS/Ca/Mg or TBS/EGTA/Mg (50 mM Tris-HCl, pH 7.5, 50 mM MgCl2, 150 mM NaCl, and 5 mM of either CaCl2 or EGTA) at 30° C. […] The blots were then incubated in Vectastain ABC.HRP in TBS/Ca/Mg or TBS/EGTA/Mg for 30 min, washed 3 times, 10 min each, with the above buffer and the CaM-binding proteins were detected colorimetrically in a substrate solution (0.8 mg/ml diaminobenzidine, 0.4 mg/ml NiCl2, and 0.009% H2O2 in 100 mM Tris-HCl, pH 7.5).

CaM = CaM binding of truncated Arabidopsis NPG1
Description: To map the CaM-binding domain, a truncated version (aa 448-496 of SEQ ID NO:10) of Arabidopsis NPG1 which contains a putative calmodulin-binding domain was expressed in E. coli and tested for its ability to bind CaM. […] The CBD was further mapped to an eighteen amino acid stretch (aa 464-481) by using synthetic peptides in a gel-shift assay.

bovine CaM [2] = molecular target: T1, bovine CaM (Bos taurus, UniProt P62157); test: Binding of synthetic peptide to bovine CaM; conditions: 'at concentrations as low as'
T1 construct: purchased Calbiochem-Novabiochem (San Diego, Calif.)

bovine CaM [3] = molecular target: T1, bovine CaM; test: Calmodulin electrophoretic mobility shift assay in 4 M urea gels; type: binding
Protocol: (§1) The interaction of CaM with synthetic peptide was also analyzed using electrophoretic mobility shift of CaM in the presence of a synthetic peptide. Each of the AtCaM isoforms and bovine CaM (166 pmol) were incubated with increasing concentrations of maize NPG1-synthetic peptide (166, 332, and 664 pmol) in the presence of 4 M urea, in a buffer containing 100 mM Tris-HCl, pH 7.5, and 1 mM CaCl2 or 5 mM EGTA at room temperature for 1 h in a total volume of […]. Then, […] of sample buffer (0.375 M Tris-HCl, pH 6.8, 30% glycerol, and 0.023% bromphenol blue) was added to the samples and the mixture was electrophoresed in 12% polyacrylamide gels containing 4 M urea or 7.5% glycerol, 0.375 M Tris-HCl, pH 8.8, and either 1 mM CaCl2 or 5 mM EGTA. The gels were run at a constant voltage of 25 V per gel in an electrode buffer (25 mM Tris-HCl, pH 8.3, 192 mM glycine, and either 1 mM CaCl2 or 5 mM EGTA). The gels were stained with 0.25% Coomassie Blue R-250 in 7.5% acetic acid and 50% methanol for 1 h and then destained with 30% methanol and 7% acetic acid.

CaM4 = molecular target: T2, CaM4 (Arabidopsis thaliana, UniProt P0DH96); test: Tryptophan fluorescence spectroscopy of peptide with CaM; type: binding
T2 construct: made in house; host or cells: E. coli BL21(DE3)
Protocol: (§2) The tryptophan fluorescence spectra of free and CaM-bound synthetic peptide were recorded with a Hitachi-F-3010/4010 spectrofluorimeter as described in Reddy et al. (1996) supra. NPG1 peptide and AtCaMs (166 pmol each) were mixed in a […] reaction volume. The tryptophan residue in free and CaM-bound synthetic NPG1 peptide was excited at 290 nm and the emission wavelength values were recorded from 300 to 400 nm with a bandwidth of 5 nm in a 5-mm quartz cell at 25° C. Samples were incubated for 1 h at 25° C. prior to spectroscopic measurements. Corrections were made for the protein and solvent blanks.

CaM2 = molecular target: T3, CaM2 (Arabidopsis thaliana, UniProt P0DH97); test: as above; type: binding; conditions: equimolar peptide and CaM2, excitation 290 nm; free peptide about 350 nm
T3 construct: made in house; host or cells: E. coli BL21(DE3)
Protocol: as §2

CaM6 = molecular target: T4, CaM6 (Arabidopsis thaliana, UniProt Q03509); test: as above; type: binding; conditions: equimolar peptide and CaM6, excitation 290 nm; free peptide about 350 nm
T4 construct: made in house; host or cells: E. coli BL21(DE3)
Protocol: as §2

bovine CaM [4] = molecular target: T1, bovine CaM; test: as above; type: binding; conditions: equimolar peptide and bovine CaM, excitation 290 nm; free peptide about 350 nm
Protocol: as §2

[5] = test system: AtCaM isoforms (CaM2, CaM4, CaM6); test: Calmodulin electrophoretic mobility shift assay in 4 M urea gels; type: binding, Arabidopsis thaliana
Protocol: as §1

[6] = molar ratio 1:1 (peptide:CaM), CaCl2, 4 M urea
[7] = molar ratio 2:1 and 4:1 (peptide:CaM), CaCl2, 4 M urea

AKLDQGSLLRVKA-KLKVAQSSPM (AKLDQGSLLRVKAKLKVAQSSPM) [MP-2]
binding to the labeled CaM isoforms ([1]; 35S-labeled AtCaM isoforms, slot blot): Neither MP2 nor BSA showed any binding

P3/NcoI: truncated P3 fusion protein (16 kDa) from the 168-bp NcoI fragment at the 5′ end of the cDNA (GGSVSKGWRLLALILSAQQRFSEAEVATDAALDETAKLDQGSLLRVKAKLKVAQSSP; left off: small tags and cut ends)
binding to 35S-CaM (35S-labeled AtCaM): produced CaM-binding peptide

truncated version (aa 448-496 of SEQ ID NO:10): truncated Arabidopsis NPG1 containing a putative calmodulin-binding domain, expressed in E. coli (AASRYAKEFIDATGGSVLKGWRFLALVLSAQQRFSEAEVVTDAALDETA; listed as Arabidopsis thaliana)
ability to bind CaM (CaM): bound CaM in a manner similar to the full-length protein

VSKGWRLLALILSAQQRF [MP-1]
lowest amount of synthetic peptide that bound CaM (bovine CaM [2]): 0.5 µg
lowest amount of synthetic peptide that bound CaM ([1]; CaM isoforms 2, 4, and 6, 'at concentrations as low as'): 0.5 µg
change in CaM mobility (bovine CaM [3]; in the presence of EGTA): No change in CaM mobility
CaM showing a mobility shift (bovine CaM [3]; [6]): about 50%
CaM migrating as peptide complex (bovine CaM [3]; [7]): the entire CaM migrated as a complex
wavelength of peak emission (CaM4; equimolar peptide and CaM4, excitation 290 nm, free peptide about 350 nm): about 315 nm
fluorescence intensity (CaM4; in the presence of CaM4, free peptide about 0.1): about 4.5
wavelength of peak emission (CaM2): about 315 nm
wavelength of peak emission (CaM6): about 315 nm
wavelength of peak emission (bovine CaM [4]): about 315 nm
change in CaM mobility ([5]; in the presence of EGTA): No change in CaM mobility
CaM showing a mobility shift [5, 6]: about 50%
CaM migrating as peptide complex [5, 7]: the entire CaM migrated as a complex
